Four substances from paper PMC12802937 can be followed below.

Assay [1] has as its target Lge1-CT (Lge1 residues 261–332), intein-chitin binding domain (CBD) tag construct (budding yeast) (UniProt Q02796). The assay is described as follows: SPR; Lge1-CT immobilised on a CM5 chip, Bre1-LR flown over; Biacore 8K, 25°C, 20 mM HEPES (pH 7.5), 200 mM sodium chloride, 0.02% Tween 20.
For assay [2], the target named is Lge1-CT D287K (budding yeast) (UniProt Q02796). The assay is described as above.
In assay [3] the target is Lge1-CT D312K (budding yeast) (UniProt Q02796). Described as above.
Assay [4] addresses Lge1-CT E278K/E282K (budding yeast) (UniProt Q02796). Described as above.
For assay [5], the target named is Bre1-LR I397K (budding yeast) (UniProt Q07457). The experiment in a line: ITC; Lge1-CT (50–60 μM) injected into Bre1-LR (15 μM); 25°C, 20 mM TRIS (pH 7.5), 200 mM sodium chloride. In general terms: In ITC the heat of successive injections is recorded.
Assay [6] has as its target Bre1-LR K506E/K510E (budding yeast) (UniProt Q07457). Described as above.
For assay [7] the target is unchanged. The experiment in a line: ITC; Lge1-CT (50–60 μM) injected into Bre1-LR (15 μM); 25°C, 20 mM TRIS (pH 7.5), 300 mM sodium chloride.

What is called Kd is the concentration at which binding is half-saturated. A lower Kd goes with a tighter complex. In turn, “Bre1-LR D389K/D390K (from UniProt Q07457 227-700) (domain or fragment)” yielded an equilibrium dissociation constant (Kd) in assay [1] of 75.5 nM.
Take “Bre1-LR (Bre1 residues 227–700, LBD and RING domains), 6× histidine tag (from UniProt Q07457 227-700) (domain or fragment)”: the Kd in assay [2] is 145 nM; in assay [3] it was 25.3 nM; in assay [4] it was 95.6 nM.
“Bre1-LR I397K (from UniProt Q07457 227-700) (domain or fragment)” gave a Kd in assay [1] of 40.7 nM.
By stoichiometry N is commonly meant the number of molecules, sites or subunits per partner or assembly. In assay [5], “Lge1-CT (Lge1 residues 261–332), intein-chitin binding domain (CBD) tag construct (from UniProt Q02796 261-332) (domain or fragment)” yielded a Kd of 122 nM, a dH of -41.3 kcal/mol and a stoichiometry N of 0.18. In assay [6], the Kd came out at 41.9 nM, the dH was -35.2 kcal/mol and the stoichiometry N was 0.383. In assay [7], this substance gave a Kd of 6720 nM, a dH of -80 kcal/mol and a stoichiometry N of 0.474.
